How the values were obtained:
[1] = biological target: T1, GST-MOB1 (GST fusion of MOB1, from pGEX-HA-MOB1), Q9H8S9
T1 chain: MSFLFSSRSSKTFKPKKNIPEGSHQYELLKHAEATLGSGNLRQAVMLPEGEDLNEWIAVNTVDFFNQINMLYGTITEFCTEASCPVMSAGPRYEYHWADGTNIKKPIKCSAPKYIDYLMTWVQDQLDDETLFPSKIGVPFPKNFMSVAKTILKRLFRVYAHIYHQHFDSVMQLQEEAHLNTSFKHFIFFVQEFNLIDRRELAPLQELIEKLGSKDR

[2] = biological target: YAP1 Recombinant Protein (Abnova H00010413-P01), P46937

B1: active recombinant human FAK (catalytic domain, FAK-C) (protein)
chain: ETDDYAEIIDEEDTYTMPSTRDYEIQRERIELGRCIGEGQFGDVHQGIYMSPENPALAVAIKTCKNCTSDSVREKFLQEALTMRQFDHPHIVKLIGVITENPVWIIMELCTLGELRSFLQVRKYSLDLASLILYAYQLSTALAYLESKRFVHRDIAARNVLVSSNDCVKLGDFGLSRYMEDSTYYKASKGKLPIKWMAPESINFRRFTSASDVWMFGVCMWEILMHGVKPFQGVKNNDVIGRIENGERLPMPPNCPPTLYSLMTKCWAYDPSRRPRFTELKAQLSTILEEEKAQQEERMRMESRRQ
Y26 phosphorylation of GST-MOB1 in an in vitro kinase reaction (immunoblot) [1]: FAK was able to directly phosphorylate MOB1 on its Y26 by in vitro kinase reaction using purified recombinant proteins | YAP Y357 phosphorylation in an in vitro kinase reaction (immunoblot) [2]: FAK was able to phosphorylate YAP at Y357 in vitro

From patent US20200323863
